Assay results published in FireProtDB (doi:10.1021/bi992119u).

B1: Steroid Delta-isomerase, P07445 (parent)
chain: MNLPTAQEVQGLMARYIELVDVGDIEAIVQMYADDATVEDPFGQPPIHGREQIAAFYRQGLGGGKVRACLTGPVRASHNGCGAMPFRVEMVWNGQPCALDVIDVMRFDEHGRIQTMQAYWSEVNLSVREPQ

Variants of: B1
Conditions: Pseudomonas putida; pH 7; 25 °C; Urea; CD; Sodium phosphate 25 mM; reversible: yes; structure 1OH0; whole UniProt chain shown

Row | Variant | denaturant m value [kcal/mol/M] | denaturant midpoint (higher = more stable) [M] | unfolding free energy [kcal/mol]
1 | MNLPTAQEVQGLMARYIELVDVGDIEAIVQMYADDATVEDPFGQPPIHGREQIAAFFRQGLGGGKVRACLTGPVRASHNGCGAMPFRVEMVWNGQPCALDLIDVMRFDEHGRIQTMQAYWSEVNLSVREPQ | 2.31 | 4.25 | 16.4
2 | MNLPTAQEVQGLMARYIELVDVGDIEAIVQMFADDATVEDPFGQPPIHGREQIAAFYRQGLGGGKVRACLTGPVRASHNGCGAMPFRVEMVWNGQPCALDVIDVMRFDEHGRIQTMQAYWSEVNLSVREPQ | 3.23 | 5.49 | 24.3
3 | MNLPTAQEVQGLMARYIELVDVGDIEAIVQMFADDATVEDPFGQPPIHGREQIAAFYRQGLGGGKVRACLTGPVRASHNGCGAMPFRVEMVWNGQPCALDLIDVMRFDEHGRIQTMQAYWSEVNLSVREPQ | 2.52 | 4.45 | 17.8
4 | MNLPTAQEVQGLMARFIELVDVGDIEAIVQMYADDATVEDPFGQPPIHGREQIAAFYRQGLGGGKVRACLTGPVRASHNGCGAMPFRVEMVWNGQPCALDVIDVMRFDEHGRIQTMQAYWSEVNLSVREPQ | 3.1 | 4.3 | 19.9
5 | MNLPTAQEVQGLMARYIELVDVGDIEAIVQMYADDATVEDPFGQPPIHGREQIAAFYRQGLGGGKVRACLTGPVRASHNGCGAMPFRVEMVWNGQPCALDLIDVMRFDEHGRIQTMQAYWSEVNLSVREPQ | 3.32 | 4.19 | 20.5
6 | MNLPTAQEVQGLMARYIELVDVGDIEAIVQMFADDATVEDPFGQPPIHGREQIAAFFRQGLGGGKVRACLTGPVRASHNGCGAMPFRVEMVWNGQPCALDVIDVMRFDEHGRIQTMQAYWSEVNLSVREPQ | 3.05 | 5.81 | 24.3
7 | MNLPTAQEVQGLMARYIELVDVGDIEAIVQMYADDATVEDPFGQPPIHGREQIAAFFRQGLGGGKVRACLTGPVRASHNGCGAMPFRVEMVWNGQPCALDVIDVMRFDEHGRIQTMQAYWSEVNLSVREPQ | 2.98 | 4.77 | 20.8
